Assay results as given in the DeepSol protein solubility set.

Test: soluble on expression in E. coli; label from the status in PepcDB or PDB records

For “MSLANQPIDLLMQPKWRVIDQSSLGPLFDAKQSFAMDDTLCMSVGKGVSPATARSWVHHDTIVLGIQDTRLPFLQDGISLLESEGYRVIVRNSGGLAVVLDDGVLNISLIFEDEKKGIDIDKGYEAMVELMRRMLRPYNAKIEAYEIEGSYCPGSYDLSINGKKFAGISQRRVRGGVAVQIYLCADKSGSERADLIRRFYQAALKDKQNDKKGVYPEIRPETMASLSELLQKDISVQDLMFALLTELKALSTHLYSAGLSIDEEMEFEKNLVRMAERNAKVFGEGHHHHHH”, which “soluble on expression in E. coli” value is on record?
Its value is “soluble”.

Which “soluble on expression in E. coli” value does the source give for “MSLAQFSVNAQRFDPYKNFKFRIKWDGRYVAGVSKVSALKRTTEVVEHREGGDASNVRKSPGRTKYEPITMERGVTHDTEFEKWANKVWNYGSGMGAEVSLKDFRKDIIIEVYNEAGQLAIAYKVYRCWVSEYQALPELDANANAVAIQSMKLENEGWERDYDIGEPDEPTFTEPQEGHHHHHH” here?
The value was “soluble”.

Which “soluble on expression in E. coli” value does the source give for “MSLAQYPVIGIDDDEFATAKKLITKQEVRAVTLSKLRLQDDLVMWDIGAGSASVSIEASNLMPNGRIFALERNPQYLGFIRDNLKKFVARNVTLVEAFAPEGLDDLPDPDRVFIGGSGGMLEEIIDAVDRRLKSEGVIVLNAVTLDTLTKAVEFLEDHGYMVEVACVNVAKTKGLTEYKMFESHNPVYIITAWKSDEGHHHHHH” here?
Its value is “soluble”.

Which “soluble on expression in E. coli” value does the source give for “MSLASIRTRIMILSDTHAQRFQPGLEPLEPVDLVIHCGDLTNNSTLRDYREAIHLLDSIKAPLKIVIAGNHDFSLDDKAYRRKIRETCRINQENLSGAIKAEYGQVGEAQQILLEAVAKGITFLSEGPHQLQLPSNSVLELYVSPYTPTHNCPGWGFQYDGIHDFNIKQGTDIVITHGPPLGIMDLTSNNERIGCPQLFAAVARAQPRVHCFGHVHEGWGAKLVSWRPNEGHHHHHH” here?
Its value is “not soluble”.

For “MSLASLPISNFFTFNHQSTLFTKVKNFMGVKHIGDCMKALINGTIYTSFSPVKKVSGLVISNERVLYAGDSSTALRIAELAGGEIIDLKGKFVMPAFFDSHLHLDELGMSLEMVDLRGVKSMEELVERVKKGRGRIIFGFGWDQDELGRWPTREDLDVIDRPVFLYRRCFHVAVMNSKMIDLLNLKPSKDFDESTGIVRERALEESRKIINEKILTVKDYKHYIESAQEHLLSLGVHSVGFMSVGEKALKALFELEREGRLKMNVFAYLSPELLDKLEELNLGKFEGRRLRIWGVKLFVDGSLGARTALLSEPYTDNPTTSGELVMNKDEIVEVIERAKPLGLDVAVHAIGDKAVDVALDAFEEAEFSGRIEHASLVRDDQLERIKELKVRISAQPHFIVSDWWIVNRVGEERAKWAYRLKTLSSITKLGFSTDSPIEPADPWVSIDAAVNRYVVDPGERVSREEALHLYTHGSAQVTLAEDLGKLERGFRAEYIILDRDPLKEMKGIITITTDPNSSSVDKLAAALEHHHHHH”, which “soluble on expression in E. coli” value is on record?
The value was “soluble”.

Which “soluble on expression in E. coli” value does the source give for “MSLATLKDVALHAGVSVTTVSNFINNKKKLKDDTRHNILEAIQATGYRHNALAASLKKSSASLRSIGIISIVDQNPFFSELFFKLENECFKQDFTVISCFRHKDKEDLHTYINLMSGRVDGIILISLKRDKIDNVIKHIHAVPVVAIAFDIGDVMSLCGGTEFNLHNETGGYIAGRFLLSKGHKKIACVTGPKALKTTVNRIAGLKKALADFNLPEDSVDFIEGNYTYQSGVDAMYQLFSSVALPTAIICHNDLMAIGVQNAANELGLKIPRELSVIGYDDIEMSKLSFPSLTTVRIPLDDIACQALEGLSMKMATPGSKAIISATPSLVVRGSVSKGIITITTDPNSSSVDKLAAALEHHHHHH” here?
Its value is “soluble”.

With “MSLAYDNVMKDKKIRVGLMTDSIPGGFYNEKGEWGGFDYDIATEIAKRMGVDIERVQVNNKTRIAYVQQGRVDISVSNMTHTRERDKSVDFSITYFFDGQKVLAKKGQFKSVKDMVGKKIATMQGTTSEVNVKRALKEAGDPNPDQSVISFQKESECFQALQMGRVAGWSTDASILVGYSAKEPGKFELVGNFLAEEPYGIAMPQDDSALRDAVNAALQDMWKDGTYKTIYNKWYGPGTPFEMPLAGQIEMWPEGHHHHHH” as the sequence, how does the “soluble on expression in E. coli” value read?
The value was “soluble”.

Which “soluble on expression in E. coli” value does the source give for “MSLAYETFAFVYDEVMDESLYQKWLDFSNRHLPQGTQQILEMACGTGALAVDFAKSGYDVTALDLSEEMLMIASERAFEEEVPVQFVQGNMLDLSEVGQYQAITCFSDSLCYMANRQEVQQVFDEVYQALEEEGTFIFDVHSTYKIDSVFPEYSYHYQTEEFAFLWDSYAGEKEHSIEHFLTFFVKEQETDEHFVRYDELHQERTYSLDNYLRMLESAGFMNVKVYADFTDEAPTETSERWFFVCQRDEGHHHHHH” here?
The value was “soluble”.

Which “soluble on expression in E. coli” value does the source give for “MSLAYGNINQPFSLESLPDELIPENLYQIETDSSRVFQRHQCRRLAHLLLFQLLKIAGKSTALLSQIHRTESGRPYFLDERIDFNISHSGDWVAVILDIRNEEKSAVGIDIEFPKIRNFTALMEHIAPKEEIDWFHHQQDSLNAFYRCWCLREAVLKSQGFGIVKLSNVRHFPEQQKIFSDYCPQGQLWFTDELPIYLAAFVNHQEKLPHFYEWNRESLQIKELEKYVLYEVNEGHHHHHH” here?
Its value is “not soluble”.

For “MSLCIIGSGPGGLCMARALKRQGLDYEQFERHGEVGGVWDINNPGTPMYQSAHFISSRDQSGFIDYPMPAHFPDYPSNRQIFEYVRSFAVAFDLYDRIRFNTAVKDVEKEQDGRWLVTLASGERRRYRAVVCATGCNWDPNMPEVKGQFEGTVRHSVTYKNPDEFKGKRVMVIGADNSGADIACDAAKHADKAFISMRRGYHLIPKHLFGMPVDEFGEKGPQLPMWLARPVFQTILRVINGDTRRFGLPRPDHKLFESHPLLNTQLLHYLQHGDIQVKPDVSHYEGQHVVFKDGTREPLDLVLYATGYKWSCPYAAKYFEWQGGRPRLYLSIFSREHHNLFGIGYVETNSSAYKLFDSEAHAVACYLRDQLHQKTQASHFDQLIATDDPDLSGGIKFVKSQRHEVYLEAHALKKYLRKLFHSEGHHHHHH”, which “soluble on expression in E. coli” value is on record?
Its value is “not soluble”.

Which “soluble on expression in E. coli” value does the source give for “MSLCRVLSVKPSSYYDWINRDISSQQIHRNQSELLIKAAHSETKERYGFERLHAHLNEQGYDISPYMVRNIKEEHGIKCRRHKRFKVTTDSNHNKLIYDNVLDQQFDVNRPNEAWVSDITYIWTTEGWLYLAGVKDLYTKELVGYAINKRMTADLVCKALNMAIKNKRPSKGLIVHSDRGGQYCSHAYHKIIKQHQFKGSMSGKGNCYDNAPIESFWGVLKNELVYHQDYKTRFAAITDIIRYIELYYNQTRIQKGLGYKSPRQVWFDYYRQAAEGHHHHHH” here?
Its value is “soluble”.

For “MSLDAAGLARSTFFYHQQRLNVPDKHIDLKEAIVEVFTRTNRRYGYRRIHAHLRQDGWNVNHKLVYKLMDELGLKSKVRAKKRYNAYQGTVSHIAENVLDRCFTPDKPNTVWTSDVTEFRIAGTKVYLSPIMDLYDRSIVSYSVSTSPNTAFTSRSLKDAITSQSPGSGLLVHTDQGIQYQHSSWRDLITSIDGIQSMSRKGNCYDNAVMENFFGHLKSEMHHGESFDGLEHFRQALDGYIHWYNHERIQKRLKGLAPMQYRNQTLEPLTAEGHHHHHH”, which “soluble on expression in E. coli” value is on record?
Its value is “not soluble”.

For “MSLDAMAKILLVEDSATQAVEMTMLLQAANHEVVHVANGQLGLSHLKEQAPDLVITDLEMPEINGLQLVESMRANFSHIPSILVTSHGSEELAAEALRRGAAGYVPKTRMSDLLNDTIVDVLGVIRSDASYAKLISTLKKNVFVFDLPSDPELISPLVGLLMQVSAGMELLPSIEMVRLGVAVEHSLTNAMLHGNLEIPRDKQPSHGQLAREGMINDAMKERLSQEPYKSRVTHVEATASEHAIRIVITDQGPGFDTSNVPQAGELDASSLAASADGVGQADKQGLLLIASFVDQMWFNDEGNQITLVKRCGAEGHHHHHH”, which “soluble on expression in E. coli” value is on record?
The value was “not soluble”.

With “MSLDFATEYVYPAFSELTGTDKIVAFGDHSHKCPIYVPQTPPCTAECPAGEDIRAINRFLNGTDPSDDPLKSAWETATDTNPFPAVMGRICPHPCQSKCNRGVHDESVAINAVEQVLGNYGIEHNLKLKGPGADTGKRVAIIGGGPAGLSAAYQLRRKGHAVTIYDANEKLGGMVLYGIMGYRVDRKVLEAEIGRIIELGVETKMGVTIGKDITLEQLEAEYDAVFIAVGAQKGRALPVPGFEGTPGATNAIDFLKSYEVLGDDIPVGKHVVVIGDGNVSMDVARLALRLGSQATIISGVPREEMACFENEFDDAKNEGTTMHFLTGTVEVLGGASGVTGLRCTKMVKKEKGEEGWNSPIPFLRYKSNGESFEIEADMVVAAIGQATDLSGLGSAASGPWLKVDRNFRIPGREKLFGGGDALKVDLITTAVGHGRKAAYAIDAFLKGEPMPEEGHHHHHH” as the sequence, how does the “soluble on expression in E. coli” value read?
Its value is “soluble”.

Which “soluble on expression in E. coli” value does the source give for “MSLDFLSQCTSGGCGAKIESRVLNQLLQHLPETPANERLLVGFEHADDAAVYQITSEKALISTVDFFSPMVNDPLSFGKIAVANALSDVYAMGGTVLYALNLVCFPQKMSKEWLEQMLLGGSLKLKEAGALLAGGHSIYDHEPKYGLAVTGEVHPENLWHNNTPQVGDVLILTKALGVGIIQAAVRGQLAKQTEQKIAQDSMERLNKYAAANARSYAVHACTDVTGFGLLIHAKEMADNQVTLLIDTEALPTITGALAYAAECLVTAAGQRNRQTIGTTIDYSKISMEMQELLFDPQTSGGLLISVAADEAAACLAAIQKEDPVAKIIGEVLPKEQQAVVLLEGHHHHHH” here?
Its value is “not soluble”.

With “MSLDIARIAVHESVAKACPLEAMVAALQGPDVRVETVGDDASFDASDCVVTFSPREAFLDAAWVHGIRAGYDEFDVDAYEAAGTVLTNSTGIHGDTVPETVVGYLTAFARRLHVYRDRQRDNDWTQEPYDAPFTLTGEQVCVVGLGTIGQGVADRTDALGMDVVGVRRSGDPAENVERVYTPDELDAAVADARFVVLCCPLTEETEGMVDAALLAQMRADSYLVNVARGPVVVEDALLNALDTGTIAGAALDAHWAEPLPDDHPLWNHESAIVTPHVAAATSRYHEDIAALVRENVERATRGESLRNRVAEGHHHHHH” as the sequence, how does the “soluble on expression in E. coli” value read?
Its value is “not soluble”.

For “MSLDIENTLLKQEAWRFIDNTTINPAFDAIQSFATDDTLCRSVGARMVPPTVRGWVHEKTVSLGIQDSKLPDIDKGIAFLQEQGYRVVVRNSGGLAVVLDSGVLNLSMVLPDAERGIAIERGYETMFTLIKDMFVDCNEVIEAKEIVNSYCPGSYDLSIQGQKFAGISQRRMAKGVAVQIYLAVEGDQAARSELIRDFYTISGKDKQTKYSFPDVKPEVMGTLSDLMKENMTVNGCLVRLFNSLRHYAGKLESGTLTPEELDLFPAYYERLIARNDKVLSEGHHHHHH”, which “soluble on expression in E. coli” value is on record?
The value was “soluble”.

For “MSLDKPYHVKFYSYNFPLPKPVVTAHGHWQRRRGLIVELTDQRGNRGRGEIAPLPWFGTEDLASATDFCRSLKGRITPAQIEKIGDRLPCCGFAFGSAEWELESGSVIENSPNSLSYCQLLPTGEAALDYLASNPQLGASTFKWKIGVGDFAVERDLYGQLWRRLPEGCQIRLDANGGLSVDIAQQWLTLLDRQRENSGPKIQYLEQPLPPGEIDEMFRLQEDFATSIALDEAVCSLAQLAQLYDKGWSGLYILKAAIMGNPRVLNHWLKTHPIPAIFSSVFETAIARGQVLALAQKWNLPDHAVGFAPLREPITEATPDSVEGHHHHHH”, which “soluble on expression in E. coli” value is on record?
The value was “soluble”.

For “MSLDLRKINLNLLLHLDTLLNELSVSKAAEKSFMSQTAMSHILKQLRDIFDDPLFIRKPHGLQPTQKVLDLAPKIKKFLNYSNDIFEEDTFNPGNDNLFLKTASVGTGEYFILPRLCAHLAKNAPKFVLKISSLSEYLSLEYLLMSELDFAIGPGFVETGNNIIRELLFEEEAVCIMHKSHPLANQELTQDMYLQAEHVDIQFSYMGNENILYKALQGYHQRNIKVIVPNIISALEVVYHTNFITTVPRTLAVTFKDRYQIELHPFPFPKKTFLVNFYYHKRLSNHKPLQWVLDVIKKYCCVNHEGHHHHHH”, which “soluble on expression in E. coli” value is on record?
The value was “soluble”.
